Measurements taken from patent US20240092890A1 (JUNTENDO EDUCATIONAL FOUNDATION, published 2024).

T1: Ins 5 type mutant CALR protein on UT-7/TPO CALR Ins 5 cells (UniProt P27797 18-417)
T1 sequence (looked up): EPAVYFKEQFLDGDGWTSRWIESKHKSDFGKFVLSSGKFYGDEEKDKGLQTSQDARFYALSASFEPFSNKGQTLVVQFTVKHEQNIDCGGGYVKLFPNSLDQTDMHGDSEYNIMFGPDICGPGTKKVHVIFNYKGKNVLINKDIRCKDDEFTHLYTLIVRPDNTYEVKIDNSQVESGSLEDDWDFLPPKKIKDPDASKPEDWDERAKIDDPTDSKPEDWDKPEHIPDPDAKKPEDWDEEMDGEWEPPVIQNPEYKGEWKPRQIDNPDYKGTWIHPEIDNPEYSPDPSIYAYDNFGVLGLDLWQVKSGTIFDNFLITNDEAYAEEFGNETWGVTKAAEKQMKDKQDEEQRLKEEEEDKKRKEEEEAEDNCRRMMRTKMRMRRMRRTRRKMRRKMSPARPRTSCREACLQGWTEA

T2: protein having an Fc region and a His-tag added to the N-terminus of SEQ ID NO: 1
T2 construct: also called mutant CALR protein (antigen of the BLItz measurement); not shown: Fc region and His-tag at the N-terminus
T2 chain: RRMMRTKMRMRRM


Columns and labels:
[1] = molecular target: T1, Ins 5 type mutant CALR protein on …; assay: cell-based or functional assay
[2] = molecular target: T2, protein having an Fc region and a …; assay: BLItz biolayer interferometry, Fc/His-SEQ ID NO: 1 protein on the biosensor
Outline: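 The Fc/His-tagged protein was loaded at 0.1 mg/mL onto Anti-Penta-HIS or Protein A biosensors. Antibodies were run at 500, 100 and 50 nM by biolayer interferometry, and the dissociation constant was derived from these binding curves.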

Kd [2] | Binder | EC50 of cytotoxic activity (calcein release, T-LAK effector cells) [1]
< 1e-06 µM | B3 chimeric antibody (antibody, human IgG1, kappa, L234A L235A, monospecific anti-mutant CALR antibody, no CD3 arm) heavy: not shown light: DIQMTQSPASLSASLGETVSIECLASEDIYSYLAWYQQKPGKSPQLLIFAANRLQDGVPSRFSGSGSGTQFSLKISGMQPEDEGDYFCLQGSKFPYTFGPGTKLELNRTVAAPSVFIFPPSDEQLKSGTASVVCLLNNFYPREAKVQWKVDNALQSGNSQESVTEQDSKDSTYSLSSTLTLSKADYEKHKVYACEVTHQGLSSPVTKSFNRGEC | > 10 nM
0.0123 µM | Antibody 26 (bispecific antibody, B3 Fab with hOKT3 scFv fused to the N-termini of both the heavy and the light chain) heavy: QVQLVQSGGGVVQPGRSLRLSCKASGYTFTRYTMHWVRQAPGKGLEWIGYINPSRGYTNYNQKVKDRFTISRDNSKNTAFLQMDSLRPEDTGVYFCARYYDDHYSLDYWGQGTPVTVSSGGGGSGGGGSGGGGSDIQMTQSPSSLSASVGDRVTITCSASSSVSYMNWYQQTPGKAPKRWIYDTSKLASGVPSRFSGSGSGTDYTFTISSLQPEDIATYYCQQWSSNPFTFGQGTKLQITRGGGGSQVQLQQSGAELVKPGSSVKISCKASGYTFTRNFIHWIKQQPGNGLEWIGWIFPGDGDTEYNQKFNGKATLTADKSSSTAYMQLSSLTSEDSAVYFCARGNYNYEYFDYWGQGVMVTVSSASTKGPSVFPLAPSSKSTSGGTAALGCLVKDYFPEPVTVSWNSGALTSGVHTFPAVLQSSGLYSLSSVVTVPSSSLGTQTYICNVNHKPSNTKVDKRVEPKSCHHHHHH light: QVQLVQSGGGVVQPGRSLRLSCKASGYTFTRYTMHWVRQAPGKGLEWIGYINPSRGYTNYNQKVKDRFTISRDNSKNTAFLQMDSLRPEDTGVYFCARYYDDHYSLDYWGQGTPVTVSSGGGGSGGGGSGGGGSDIQMTQSPSSLSASVGDRVTITCSASSSVSYMNWYQQTPGKAPKRWIYDTSKLASGVPSRFSGSGSGTDYTFTISSLQPEDIATYYCQQWSSNPFTFGQGTKLQITRGGGGSDIQMTQSPASLSASLGETVSIECLASEDIYSYLAWYQQKPGKSPQLLIFAANRLQDGVPSRFSGSGSGTQFSLKISGMQPEDEGDYFCLQGSKFPYTFGPGTKLELNRTVAAPSVFIFPPSDEQLKSGTASVVCLLNNFYPREAKVQWKVDNALQSGNSQESVTEQDSKDSTYSLSSTLTLSKADYEKHKVYACEVTHQGLSSPVTKSFNRGEC | 0.039 nM
0.0136 µM | Antibody 27 (bispecific antibody, B3 Fab with hOKT3 scFv at the heavy chain C-terminus and at the light chain N-terminus) heavy: QVQLQQSGAELVKPGSSVKISCKASGYTFTRNFIHWIKQQPGNGLEWIGWIFPGDGDTEYNQKFNGKATLTADKSSSTAYMQLSSLTSEDSAVYFCARGNYNYEYFDYWGQGVMVTVSSASTKGPSVFPLAPSSKSTSGGTAALGCLVKDYFPEPVTVSWNSGALTSGVHTFPAVLQSSGLYSLSSVVTVPSSSLGTQTYICNVNHKPSNTKVDKRVEPKSCGGGGSQVQLVQSGGGVVQPGRSLRLSCKASGYTFTRYTMHWVRQAPGKGLEWIGYINPSRGYTNYNQKVKDRFTISRDNSKNTAFLQMDSLRPEDTGVYFCARYYDDHYSLDYWGQGTPVTVSSGGGGSGGGGSGGGGSDIQMTQSPSSLSASVGDRVTITCSASSSVSYMNWYQQTPGKAPKRWIYDTSKLASGVPSRFSGSGSGTDYTFTISSLQPEDIATYYCQQWSSNPFTFGQGTKLQITRHHHHHH light: QVQLVQSGGGVVQPGRSLRLSCKASGYTFTRYTMHWVRQAPGKGLEWIGYINPSRGYTNYNQKVKDRFTISRDNSKNTAFLQMDSLRPEDTGVYFCARYYDDHYSLDYWGQGTPVTVSSGGGGSGGGGSGGGGSDIQMTQSPSSLSASVGDRVTITCSASSSVSYMNWYQQTPGKAPKRWIYDTSKLASGVPSRFSGSGSGTDYTFTISSLQPEDIATYYCQQWSSNPFTFGQGTKLQITRGGGGSDIQMTQSPASLSASLGETVSIECLASEDIYSYLAWYQQKPGKSPQLLIFAANRLQDGVPSRFSGSGSGTQFSLKISGMQPEDEGDYFCLQGSKFPYTFGPGTKLELNRTVAAPSVFIFPPSDEQLKSGTASVVCLLNNFYPREAKVQWKVDNALQSGNSQESVTEQDSKDSTYSLSSTLTLSKADYEKHKVYACEVTHQGLSSPVTKSFNRGEC | 0.036 nM
1480 µM | Antibody 28 (bispecific antibody, format not described) chain 1: QVTLKESGPVLVKPTETLTLTCTVSGYSITSDYAWNWIRQPPGKALEWLAYISYSGSTSYNPSLKSRLSITKDTSKSQVVLTMTNMDPVDTATYYCARDPPYYYGSWGQGTTVTVSSASTKGPSVFPLAPSSKSTSGGTAALGCLVKDYFPEPVTVSWNSGALTSGVHTFPAVLQSSGLYSLSSVVTVPSSSLGTQTYICNVNHKPSNTKVDKRVEPKSCGGGGSQVQLVQSGGGVVQPGRSLRLSCKASGYTFTRYTMHWVRQAPGKGLEWIGYINPSRGYTNYNQKVKDRFTISRDNSKNTAFLQMDSLRPEDTGVYFCARYYDDHYSLDYWGQGTPVTVSSGGGGSGGGGSGGGGSDIQMTQSPSSLSASVGDRVTITCSASSSVSYMNWYQQTPGKAPKRWIYDTSKLASGVPSRFSGSGSGTDYTFTISSLQPEDIATYYCQQWSSNPFTFGQGTKLQITRHHHHHH chain 2: DVVMTQSPLSLPVTLGQPASISCKSSQSLLDSDGKTYLNWLQQRPGQSPRRLIYLVSKLDSGVPDRFSGSGSGTDFTLKISRVEAEDVGVYHCWQGTHFPYTFGGGTKVEIKRTVAAPSVFIFPPSDEQLKSGTASVVCLLNNFYPREAKVQWKVDNALQSGNSQESVTEQDSKDSTYSLSSTLTLSKADYEKHKVYACEVTHQGLSSPVTKSFNRGEC | 5.43 nM
5.7 µM | Antibody 29 (bispecific antibody, format not described) chain 1: QVQLVQSGAEVKKPGASVKVSCKASGYSFTGYYIHWVRQAPGQGLEWIGYISAYNGASSYNQKFKGRATFTVDTSISTAYMELSRLRSDDTAVYYCASSMDYWGQGTLVTVSSASTKGPSVFPLAPSSKSTSGGTAALGCLVKDYFPEPVTVSWNSGALTSGVHTFPAVLQSSGLYSLSSVVTVPSSSLGTQTYICNVNHKPSNTKVDKRVEPKSCGGGGSQVQLVQSGGGVVQPGRSLRLSCKASGYTFTRYTMHWVRQAPGKGLEWIGYINPSRGYTNYNQKVKDRFTISRDNSKNTAFLQMDSLRPEDTGVYFCARYYDDHYSLDYWGQGTPVTVSSGGGGSGGGGSGGGGSDIQMTQSPSSLSASVGDRVTITCSASSSVSYMNWYQQTPGKAPKRWIYDTSKLASGVPSRFSGSGSGTDYTFTISSLQPEDIATYYCQQWSSNPFTFGQGTKLQITRHHHHHH chain 2: DVVMTQSPLSLPVTLGQPASISCKSSQSLLDSDGKTYLNWLQQRPGQSPKRLIYLVSKLDSGVPDRFSGSGSGTDFTLKISRVEAEDVGVYHCWQGTHFPYTFGQGTKLEIKRTVAAPSVFIFPPSDEQLKSGTASVVCLLNNFYPREAKVQWKVDNALQSGNSQESVTEQDSKDSTYSLSSTLTLSKADYEKHKVYACEVTHQGLSSPVTKSFNRGEC | 0.634 nM
0.00655 µM | Antibody 9 (bispecific antibody, B3 VH-VL scFv and hOKT3 VH-VL scFv in one polypeptide, no Fc) QVQLQQSGAELVKPGSSVKISCKASGYTFTRNFIHWIKQQPGNGLEWIGWIFPGDGDTEYNQKFNGKATLTADKSSSTAYMQLSSLTSEDSAVYFCARGNYNYEYFDYWGQGVMVTVSSGGGGSGGGGSGGGGSDIQMTQSPASLSASLGETVSIECLASEDIYSYLAWYQQKPGKSPQLLIFAANRLQDGVPSRFSGSGSGTQFSLKISGMQPEDEGDYFCLQGSKFPYTFGPGTKLELNGGGGSQVQLVQSGGGVVQPGRSLRLSCKASGYTFTRYTMHWVRQAPGKGLEWIGYINPSRGYTNYNQKVKDRFTISRDNSKNTAFLQMDSLRPEDTGVYFCARYYDDHYSLDYWGQGTPVTVSSGGGGSGGGGSGGGGSDIQMTQSPSSLSASVGDRVTITCSASSSVSYMNWYQQTPGKAPKRWIYDTSKLASGVPSRFSGSGSGTDYTFTISSLQPEDIATYYCQQWSSNPFTFGQGTKLQITRHHHHHH | 1.53 nM
